Assay results taken from patent US10344330B2, “Glatiramer acetate response biomarker mRNA potency assay” (Mylan Inc., priority 2013, dated 2019).

What was measured:
[1] = system: mouse IL-2 mRNA in primary LN cells; test: Validation: mouse IL-2 mRNA by real-time PCR in LN cells of GA-immunized SJL/J mice, three experiments (Example IV); format: cell-based; conditions: for IL-2 mRNA Fold Change: 10 μg/mL, normalized to GAPDH
Description: Three experiments were conducted using one batch of GA (Mylan GMA). The primary LN cells were stimulated by incubation with 6 concentrations (0.3 to 20 μg/mL) of the GA for 6 hours at 37° C. Total RNA was isolated from LN cells stimulated with GA or controls. cDNA was synthesized from the RNA and the mRNA levels of seven mouse cytokines, IL-2, IL-4, IL-5, IL-10, IL-13, interferon (IFN)-γ and tumor necrosis factor (TNF)-α, were quantitatively measured by a real-time PCR method.
Female SJL/J mice at 8-9 weeks of age were immunized by injection into four footpads using a 1 mL syringe with a 27-G, ½-inch needle. Each mouse received a total injection volume of 0.1 mL of GMA emulsified in CFA (about 10 μL into each of the front footpads and 40 μL into each of the hind footpads). Animals were immunized on Day 0. After injection, animals were placed back in their cages and housed ≤6 animals per cage.
Immunized animals were sacrificed by cervical dislocation on Day 10 following immunization. […] After centrifugation at about 200×g for 10 minutes at 4° C., the cell pellet was re-suspended in 40 mL of DCCM-1 medium for cell counting. A Trypan blue exclusion method was used to determine the cell density of viable cells in the suspension. After cell counting, the LN cells were suspended in enriched DCCM-1 medium at density of 7.5×10^6 cells/mL. LN cells (0.12 mL) were plated into each well of 96-well tissue culture plates.
Dilutions of GA (Mylan GMA) were prepared using enriched DCCM-1 medium as the diluent. GA dilutions (0.12 mL) were added in the assigned wells of 96-well tissue culture plates. The same volume of LN cells (0.12 mL) isolated from immunized animals was added to the assigned wells. A positive control and a negative control were always performed in the same assay by treating LN cells with 2.5 μg/mL ConA and 10 μg/mL MBP, respectively. The LN cells with mock stimulation protocols (enriched DCCM-1 medium) were used to monitor the background mRNA level of a cytokine. The plates were incubated at 37° C. in a humidified 5% CO2 incubator for 6 hr.
At the end of incubation time, culture medium from stimulated cells was removed by aspiration and the cells were lysed using Qiagen or Promega lysis buffer. The lysate was transferred to an RNeasy Mini column (Qiagen) or wells of the SV 96 Binding Plate (Promega) for RNA isolation and cDNA synthesis. All tested samples were run in triplicate.
The SV 96 Total RNA Isolation System (Promega; Cat. No. Z3505) was used for total RNA isolation. Assay procedures were carried out according to each manufacturer's protocol. RNA samples were stored at −70° C. until use. […] The assay procedure was carried out according to the manufacturer's protocol.
The plate was centrifuged at 2000 rpm for 2 minutes at 4° C. to spin down the contents and eliminate air bubbles. Samples were prepared and run in a 96-well plate using a Life Technologies Real-Time PCR system (previously Applied Biosystems; Model No. 7500) according to the manufacturer's recommendation. The mix for the reference gene was prepared in the same way using the reference gene primer.
A relative quantitation method was used to analyze changes in mIL-2, mIL-4, mIL-5, mIL-10, mIL-13, mIFN-γ and TNF-α expression in GA treated samples relative to the untreated control (Enriched DCCM-1 treated) samples using the following program:
Levels of mouse cytokine amplicons were normalized to an internal probe level (GAPDH) from the same samples. The following equations were used to calculate the relative increase in response to GA stimulation compared to the control sample (Enriched DCCM1 sample): […]

[2] = system: IFN-γ secreted by LN cells; test: IFN-γ secretion by GA-stimulated LN cells, MSD ELISA, 21 and 45 hr (Example II); format: cell-based, mouse
[3] = system: TNF-α secreted by LN cells; test: TNF-α secretion by GA-stimulated LN cells, MSD 9-plex ELISA (Example II); format: cell-based, mouse; conditions: 21 hr
Description: Animals at 8 weeks of age were immunized by injection into four footpads using a 1 mL syringe with a 27-G, 1⁄2-inch needle. […] Ten days post-immunization, immunized animals were sacrificed via cervical dislocation. […] The LN cells were isolated by pressing the LN with the plunger end of a sterile syringe. […] Trypan blue exclusion method was used to determine the cell density of viable cells in the suspension. […] Cat. […] LN cells were plated into a 24-well tissue culture plate for drug stimulation. […] Cell debris was removed by centrifugation at ca. 200×g for 10 minutes at 4° C. Cytokines secreted by treated cells were determined on the day of collection by ELISA using mouse TH 1/TH 2 9-Plex Tissue Culture Kit (Meso Scale Discovery; Cat No. […]-2, Lot #: K0032839) which detects Th1 cytokines (IFN-γ, IL-2, IL-12, IL-1β, TNF-α, CXCL1) and Th2 cytokines (IL-4, IL-5 and IL-10). For IFN-γ, culture media also were assayed at 45 hours using mouse IFN-γ Tissue Culture Kit (Meso Scale Discovery; Cat No. […] For the positive control, 0.5 mL of LN cells (5×10^6 cells/well) were treated with 0.5 mL of ConA (5 μg/mL). For the negative control, 0.5 mL of LN cells (5×10^6 cells/well) were treated with 0.5 mL of MBP (20 μg/mL). The LN cells with mock stimulation (enriched DCCM1 medium) were used to monitor the background level of a cytokine. For the cytokine assays, calibration standards or samples were incubated in the MULTI-SPOT or the SINGLE-SPOT plate and each cytokine bound to its corresponding capture antibody. All test samples were run in duplicate. The amount of each cytokine on its distinct spot was quantified using a cytokine-specific detection antibody labeled with MSD SULFO-TAGTM reagent. Electrochemiluminescent signals from immobilized SULFO-TAGTM-labeled complexes on each spot from each well were captured by the MSD SECTOR Imager 6000, which produces a signal directly proportional to the amount of captured cytokine in a test sample. The levels of cytokines in test samples were derived by interpolation from calibration curves with calibration standards of known concentrations using reagents provided with the MSD kits. Kits were used according to the manufacturer's protocols. […] Data are expressed as a response ratio of cytokine concentration in treated cell medium to control DCCM1 medium.

B1: MBP: myelin basic protein, a negative control (protein, UniProt P02686 1-304, looked up)
Myelin basic protein: MGNHAGKRELNAEKASTNSETNRGESEKKRNLGELSRTTSEDNEVFGEADANQNNGTSSQDTAVTDSKRTADPKNAWQDAHPADPGSRPHLIRLFSRDAPGREDNTFKDRPSESDELQTIQEDSAATSESLDVMASQKRPSQRHGSKYLATASTMDHARHGFLPRHRDTGILDSIGRFFGGDRGAPKRGSGKDSHHPARTAHYGSLPQKSHGRTQDENPVVHFFKNIVTPRTPPPSQGKGRGLSLSRFSWGAEGQRPGFGYGGRASDYKSAHKGFKGVDAQGTLSKIFKLGGRDSRSGSPMARR
- IL-2 mRNA Fold Change ([1]; Experiment 1): 1.0 fold
- IL-2 mRNA Fold Change ([1]; Experiment 2): 0.9 fold
- IL-2 mRNA Fold Change ([1]; Experiment 3): 0.8 fold
- IL-2 mRNA expression level in response to MBP treatment ([1]; SJL/J, MBP 10 μg/mL, all PCR runs): ≤ 2 fold
- IFN-γ secretion response ratio (treated cell medium to control DCCM1 medium) ([2]; BALB/cByJ, immunized GA Intraplantar, 21 hr): 0.87
- IFN-γ secretion response ratio (treated cell medium to control DCCM1 medium) ([2]; BALB/cByJ, immunized GA Intraplantar, 45 hr): 0.83
- IFN-γ secretion response ratio (treated cell medium to control DCCM1 medium) ([2]; BALB/cByJ, immunized GA Lower Limb, 21 hr): 0.80
- IFN-γ secretion response ratio (treated cell medium to control DCCM1 medium) ([2]; BALB/cByJ, immunized GA Lower Limb, 45 hr): 0.92
- IFN-γ secretion response ratio (treated cell medium to control DCCM1 medium) ([2]; BALB/cByJ, immunized Mannitol Intraplantar, 21 hr): 1.17
- IFN-γ secretion response ratio (treated cell medium to control DCCM1 medium) ([2]; BALB/cByJ, immunized Mannitol Intraplantar, 45 hr): 0.92
- IFN-γ secretion response ratio (treated cell medium to control DCCM1 medium) ([2]; C57BL10J, immunized GA Intraplantar, 21 hr): 1.03
- IFN-γ secretion response ratio (treated cell medium to control DCCM1 medium) ([2]; C57BL10J, immunized GA Intraplantar, 45 hr): 1.07
- IFN-γ secretion response ratio (treated cell medium to control DCCM1 medium) ([2]; C57BL10J, immunized GA Lower Limb, 21 hr): 1.60
- IFN-γ secretion response ratio (treated cell medium to control DCCM1 medium) ([2]; C57BL10J, immunized GA Lower Limb, 45 hr): 1.80
- IFN-γ secretion response ratio (treated cell medium to control DCCM1 medium) ([2]; C57BL10J, immunized Mannitol Intraplantar, 21 hr): 2.02
- IFN-γ secretion response ratio (treated cell medium to control DCCM1 medium) ([2]; C57BL10J, immunized Mannitol Intraplantar, 45 hr): 1.41
- IFN-γ secretion response ratio (treated cell medium to control DCCM1 medium) ([2]; CD-1, immunized GA Intraplantar, 21 hr): 1.06
- IFN-γ secretion response ratio (treated cell medium to control DCCM1 medium) ([2]; CD-1, immunized GA Intraplantar, 45 hr): 0.89
- IFN-γ secretion response ratio (treated cell medium to control DCCM1 medium) ([2]; CD-1, immunized GA Lower Limb, 21 hr): 0.90
- IFN-γ secretion response ratio (treated cell medium to control DCCM1 medium) ([2]; CD-1, immunized GA Lower Limb, 45 hr): 2.11
- IFN-γ secretion response ratio (treated cell medium to control DCCM1 medium) ([2]; CD-1, immunized Mannitol Intraplantar, 21 hr): 1.57
- IFN-γ secretion response ratio (treated cell medium to control DCCM1 medium) ([2]; CD-1, immunized Mannitol Intraplantar, 45 hr): 7.22
- TNF-α secretion response ratio (treated cell medium to control DCCM1 medium) ([3]; BALB/cByJ, immunized GA Intraplantar): 0.98
- TNF-α secretion response ratio (treated cell medium to control DCCM1 medium) ([3]; BALB/cByJ, immunized GA Lower Limb): 1.07
- TNF-α secretion response ratio (treated cell medium to control DCCM1 medium) ([3]; BALB/cByJ, immunized Mannitol Intraplantar): 1.10
- TNF-α secretion response ratio (treated cell medium to control DCCM1 medium) ([3]; C57BL10J, immunized GA Intraplantar): 1.03
- TNF-α secretion response ratio (treated cell medium to control DCCM1 medium) ([3]; C57BL10J, immunized GA Lower Limb): 1.04
- TNF-α secretion response ratio (treated cell medium to control DCCM1 medium) ([3]; C57BL10J, immunized Mannitol Intraplantar): 1.01
- TNF-α secretion response ratio (treated cell medium to control DCCM1 medium) ([3]; CD-1, immunized GA Intraplantar): 1.34
- TNF-α secretion response ratio (treated cell medium to control DCCM1 medium) ([3]; CD-1, immunized GA Lower Limb): 1.54
- TNF-α secretion response ratio (treated cell medium to control DCCM1 medium) ([3]; CD-1, immunized Mannitol Intraplantar): 1.51
